Assay results from patent US7858298.

What was measured:
[1] = target: human CCR5 expressed on the cell surface (human) (UniProt P51681); assay: cell-based or functional assay
[2] = target: CD4 on CD4+ target cells (human) (UniProt P01730); assay: cell-based or functional assay

Chain of recombinant human MIP-1α (P10147 27-92 limits assumed): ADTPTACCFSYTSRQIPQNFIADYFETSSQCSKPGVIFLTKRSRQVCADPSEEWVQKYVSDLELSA
Chain of recombinant human RANTES (P13501 24-91): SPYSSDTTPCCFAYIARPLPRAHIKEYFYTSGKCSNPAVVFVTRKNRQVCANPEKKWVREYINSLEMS
Chain of recombinant human MIP-1β (P13236 24-92 limits assumed): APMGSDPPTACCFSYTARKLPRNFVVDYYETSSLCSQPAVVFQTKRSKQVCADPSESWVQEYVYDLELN

RANTES + MIP-1α + MIP-1β
% Fusion (RET assay), LW5 CD4+ cells with HeLa-JR-FL cells; R/Mα/Mβ 106/533/133 ng/ml [1]: 39%
% Fusion (RET assay), PM1 cells with HeLa-JR-FL cells; R/Mα/Mβ 80/400/100 ng/ml [1]: 1%
% luciferase activity, entry of ADA env-complemented virus into PM1 cells; R/Mα/Mβ 50/50/50 ng/ml [1]: 3%
% luciferase activity, entry of BaL env-complemented virus into PM1 cells; R/Mα/Mβ 50/50/50 ng/ml [1]: 2%
% luciferase activity, entry of JR-FL env-complemented virus into LW4 CD4+ T-cells; R/Mα/Mβ 200/200/200 ng/ml [1]: 14%
% luciferase activity, entry of JR-FL env-complemented virus into LW5 CD4+ T-cells; R/Mα/Mβ 200/200/200 ng/ml [1]: 15%
luciferase activity, ADA entry into 3T3-CD4 cells expressing CKR-5, with R/Mα/Mβ 400 ng/ml each (28400 without) (luciferase activity (unit not given)) [1]: 1220
luciferase activity, ADA entry into COS-CD4 cells expressing CKR-5, with R/Mα/Mβ 400 ng/ml each (153000 without) (luciferase activity (unit not given)) [1]: 3210
luciferase activity, ADA entry into HeLa-CD4 cells expressing CKR-5, with R/Mα/Mβ 400 ng/ml each (310000 without) (luciferase activity (unit not given)) [1]: 6340
luciferase activity, BaL entry into 3T3-CD4 cells expressing CKR-5, with R/Mα/Mβ 400 ng/ml each (11700 without) (luciferase activity (unit not given)) [1]: 756
luciferase activity, BaL entry into COS-CD4 cells expressing CKR-5, with R/Mα/Mβ 400 ng/ml each (58800 without) (luciferase activity (unit not given)) [1]: 756
luciferase activity, BaL entry into HeLa-CD4 cells expressing CKR-5, with R/Mα/Mβ 400 ng/ml each (104000 without) (luciferase activity (unit not given)) [1]: 750

monoclonal antibody OKT4A
% Fusion (RET assay), LW5 CD4+ cells with HeLa-BRU cells; OKT4A 3 ug/ml [2]: 0%
% Fusion (RET assay), LW5 CD4+ cells with HeLa-JR-FL cells; OKT4A 3 ug/ml [2]: 0%

recombinant human MIP-1α (from UniProt P10147 27-92) (ligand)
% Fusion (RET assay), LW5 CD4+ cells with HeLa-JR-FL cells; MIP-1α 533 ng/ml [1]: 72%
% Fusion (RET assay), PM1 cells with HeLa-JR-FL cells; MIP-1α 400 ng/ml [1]: 39%
% luciferase activity, entry of ADA env-complemented virus into PM1 cells; MIP-1α 100 ng/ml [1]: 54%
% luciferase activity, entry of BaL env-complemented virus into PM1 cells; MIP-1α 100 ng/ml [1]: 54%

recombinant human MIP-1β (from UniProt P13236 24-92) (ligand)
% Fusion (RET assay), LW5 CD4+ cells with HeLa-JR-FL cells; MIP-1β 133 ng/ml [1]: 44%
% Fusion (RET assay), PM1 cells with HeLa-JR-FL cells; MIP-1β 100 ng/ml [1]: 13%
% luciferase activity, entry of ADA env-complemented virus into PM1 cells; MIP-1β 100 ng/ml [1]: 6%
% luciferase activity, entry of BaL env-complemented virus into PM1 cells; MIP-1β 100 ng/ml [1]: 1%

recombinant human RANTES (from UniProt P13501 24-91) (ligand)
% Fusion (RET assay), LW5 CD4+ cells with HeLa-JR-FL cells; RANTES 106 ng/ml [1]: 65%
% Fusion (RET assay), PM1 cells with HeLa-JR-FL cells; RANTES 80 ng/ml [1]: 8%
% luciferase activity, entry of ADA env-complemented virus into PM1 cells; RANTES 100 ng/ml [1]: 1%
% luciferase activity, entry of BaL env-complemented virus into PM1 cells; RANTES 100 ng/ml [1]: 1%
